Results as given in patent US11512128B2, “VEGF/DLL4 binding agents and uses thereof” (MEREO BIOPHARMA 5, INC., priority 2011, dated 2022).
Blank lines part the entries; values can stand above or below the molecule they belong to.

Columns and labels:
human VEGF165 = biological target: T1, human VEGF165 (Homo sapiens, UniProt P15692); assay: Biacore binding affinity (KD) to human VEGF; conditions: Biacore 2000, biotinylated human VEGF165 on streptavidin chip; read-out: KD hVEGF
T1 sequence (P15692 27-191 isoform P15692-4): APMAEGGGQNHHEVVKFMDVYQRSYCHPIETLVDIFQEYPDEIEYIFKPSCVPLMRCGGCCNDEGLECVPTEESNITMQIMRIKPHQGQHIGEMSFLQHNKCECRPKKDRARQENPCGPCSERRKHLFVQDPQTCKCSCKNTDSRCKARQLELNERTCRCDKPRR
Method: The KDs of parental antibodies anti-VEGF 219R45 (IgG format), anti-DLL4 21R79 (IgG format), anti-DLL4 21M18 (IgG format) and bispecific antibodies 219R45-MB-21M18 and 219R45-MB-21R79 were determined using a Biacore 2000 system from Biacore LifeSciences (GE Healthcare). Recombinant human DLL4-Fc or mouse DLL4-Fc proteins were immobilized on CM5 carboxyl chips using standard amine-based chemistry (NHS/EDC) and blocked with ethanolamine. Recombinant human VEGF165 or mouse VEGF165 were biotinylated and immobilized on streptavidin chips. The antibodies were serially diluted 2-fold from 100 nM to 0.78 nM in HBS-P (0.01M HEPES pH7.4, 0.15M NaCl, 0.005% v/v Polysorbate 20). For each antibody, all 8 dilutions were sequentially injected over a specific chip. Kinetic data were collected over time and were fit using the simultaneous global fit equation to yield affinity constants (KD values) for each bispecific antibody.

OMP-C8 colon tumor = OMP-C8 colon tumor growth in vivo; parameters: species or system NOD/SCID mice
Method: FIGS. 11A and 11B. Inhibition of colon tumor growth in vivo by anti-VEGF/anti-DLL4 bispecific antibodies. OMP-C8 colon tumor cells were injected subcutaneously into NOD/SCID mice. Mice were treated with control antibody (-▪-), anti-VEGF antibody bevacizumab (-▴-), or anti-VEGF/anti-DLL4 bispecific antibodies 219R45-MB-21M18 (-⋄-), 219R45-MB-21R75 (-●-), 219R45-MB-21R79 (-∘-), or 219R45-MB-21R83 (-▾-). Mice were treated with antibodies as single agents (FIG. 11A) or in combination with irinotecan (FIG. 11B). Antibodies were administered intraperitoneally at a dose of 15 mg/kg once a week and irinotecan at a dose of 7.5 mg/kg one a week. Data are shown as tumor volume (mm^3) over days post-treatment.
Single cell suspensions of OMP-C8 colon tumor xenografts (50,000 cells) were injected subcutaneously into the flanks of 6-8 week old NOD/SCID mice. Tumors were allowed to grow for 21 days until they reached an average volume of 80 mm^3. The mice were randomized (n=8 per group) and treated with anti-DLL4 antibody 21M18, anti-VEGF antibody bevacizumab, anti-VEGF/anti-DLL4 bispecific antibodies 219R45-MB-21M18, 219R45-MB-21R75, 219R45-MB-21R79, 219R45-MB-21R83, or control antibody, either alone or in combination with irinotecan. Antibodies and irinotecan were dosed weekly by injection into the intraperitoneal cavity. Bevacizumab and bispecific antibodies 219R45-MB-21M18, 219R45-MB-21R75, 219R45-MB-21R79, and 219R45-MB-21R83 were dosed at 15 mg/kg, and irinotecan was dosed at 7.5 mg/kg. Tumor growth was monitored and tumor volumes were measured with electronic calipers at the indicated time points. Data are expressed as mean±S.E.M.
Following the treatment phase, tumor sections were prepared and analyzed by hematoxylin and eosin (H&E) staining. […] This is characteristic of highly necrotic tumor tissue.

Kd (human VEGF165): > 100 nM
B1: 21M18: anti-DLL4 antibody, parental antibody (Hoey et al., 2009; U.S. Pat. No. 7,750,124) (antibody, V domains shown)
VH: QVQLVQSGAEVKKPGASVKISCKASGYSFTAYYIHWVKQAPGQGLEWIGYISSYNGATNYNQKFKGRVTFTTDTSTSTAYMELRSLRSDDTAVYYCARDYDYDVGMDYWGQGTLVTVSS
VL: DIVMTQSPDSLAVSLGERATISCRASESVDNYGISFMKWFQQKPGQPPKLLIYAASNQGSGVPDRFSGSGSGTDFTLTISSLQAEDVAVYYCQQSKEVPWTFGGGTKVEIK

B2: 219R45-MB-21M18: anti-VEGF/anti-DLL4 monovalent/bispecific antibody, heavy chains SEQ ID NO:7 and 5, light chains SEQ ID NO:8 (antibody)
heavy 1: QVQLVQSGAEVKKPGASVKVSCKASGYTFTNYWMHWVRQAPGQGLEWMGDINPSNGRTSYKEKFKRRVTLSVDKSSSTAYMELSSLRSEDTAVYFCTIHYDDKYYPLMDYWGQGTLVTVSSASTKGPSVFPLAPCSRSTSESTAALGCLVKDYFPEPVTVSWNSGALTSGVHTFPAVLQSSGLYSLSSVVTVPSSNFGTQTYTCNVDHKPSNTKVDKTVERKCCVECPPCPAPPVAGPSVFLFPPKPKDTLMISRTPEVTCVVVDVSHEDPEVQFNWYVDGVEVHNAKTKPREEQFNSTFRVVSVLTVVHQDWLNGKEYKCKVSNKGLPAPIEKTISKTKGQPREPQVYTLPPSREKMTKNQVSLTCLVKGFYPSDIAVEWESNGQPENNYKTTPPMLKSDGSFFLYSKLTVDKSRWQQGNVFSCSVMHEALHNHYTQKSLSLSPGK
heavy 2: QVQLVQSGAEVKKPGASVKISCKASGYSFTAYYIHWVKQAPGQGLEWIGYISSYNGATNYNQKFKGRVTFTTDTSTSTAYMELRSLRSDDTAVYYCARDYDYDVGMDYWGQGTLVTVSSASTKGPSVFPLAPCSRSTSESTAALGCLVKDYFPEPVTVSWNSGALTSGVHTFPAVLQSSGLYSLSSVVTVPSSNFGTQTYTCNVDHKPSNTKVDKTVERKCCVECPPCPAPPVAGPSVFLFPPKPKDTLMISRTPEVTCVVVDVSHEDPEVQFNWYVDGVEVHNAKTKPREEQFNSTFRVVSVLTVVHQDWLNGKEYKCKVSNKGLPAPIEKTISKTKGQPREPQVYTLPPSREEMTKNQVSLTCLVEGFYPSDIAVEWESNGQPENNYKTTPPMLDSDGSFFLYSELTVDKSRWQQGNVFSCSVMHEALHNHYTQKSLSLSPGK
light: DIVMTQSPDSLAVSLGERATISCRASESVDNYGISFMKWFQQKPGQPPKLLIYAASNQGSGVPDRFSGSGSGTDFTLTISSLQAEDVAVYYCQQSKEVPWTFGGGTKVEIKRTVAAPSVIFPPSDEQLKSGTASVVCLLNNFYPREAKVQWKVDNALQSGNSQESVTEQDSKDSTYSLSSTLTLSKADYEKHKVYACEVTHQGLSSPVTKSFNRGEC
modifications: 21R79 Heavy chain without predicted signal sequence; 21M18 Heavy chain without predicted signal sequence; Light chain without predicted signal sequence
inhibition of tumor growth in combination with irinotecan (OMP-C8 colon tumor; antibody 15 mg/kg, irinotecan 7.5 mg/kg weekly ip): greatest inhibition of tumor growth
H&E staining of tumor sections after treatment (OMP-C8 colon tumor; in combination with irinotecan): dark pink staining regions providing evidence of extensive calcification
